Columns and labels:
[1] = molecular target: T1, Avi/his-CalR-Ins5 (CALRW28.004) (human, UniProt P27797 18-417, limits assumed); assay: SPR, forced degradation: pH 5.0
T1 construct: also called human CALRins5
T1 sequence (looked up): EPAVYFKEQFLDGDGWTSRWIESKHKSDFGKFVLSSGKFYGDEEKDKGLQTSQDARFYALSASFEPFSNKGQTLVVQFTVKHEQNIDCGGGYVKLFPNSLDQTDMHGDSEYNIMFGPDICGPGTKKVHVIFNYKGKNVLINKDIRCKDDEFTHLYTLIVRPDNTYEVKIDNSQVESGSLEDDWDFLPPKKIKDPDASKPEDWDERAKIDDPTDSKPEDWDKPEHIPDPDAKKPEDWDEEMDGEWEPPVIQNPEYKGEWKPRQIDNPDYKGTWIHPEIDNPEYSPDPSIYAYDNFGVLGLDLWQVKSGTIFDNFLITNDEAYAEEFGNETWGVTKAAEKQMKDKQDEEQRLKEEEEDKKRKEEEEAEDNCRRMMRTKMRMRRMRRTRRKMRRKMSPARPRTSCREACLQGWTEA

[2] = molecular target: T2, Flag/6xhis-CALRdel52 (CALRW12.007) (human, UniProt P27797 18-417); assay: SPR, forced degradation: Physiological
T2 construct: also called human CALRdel52
T2 sequence (looked up): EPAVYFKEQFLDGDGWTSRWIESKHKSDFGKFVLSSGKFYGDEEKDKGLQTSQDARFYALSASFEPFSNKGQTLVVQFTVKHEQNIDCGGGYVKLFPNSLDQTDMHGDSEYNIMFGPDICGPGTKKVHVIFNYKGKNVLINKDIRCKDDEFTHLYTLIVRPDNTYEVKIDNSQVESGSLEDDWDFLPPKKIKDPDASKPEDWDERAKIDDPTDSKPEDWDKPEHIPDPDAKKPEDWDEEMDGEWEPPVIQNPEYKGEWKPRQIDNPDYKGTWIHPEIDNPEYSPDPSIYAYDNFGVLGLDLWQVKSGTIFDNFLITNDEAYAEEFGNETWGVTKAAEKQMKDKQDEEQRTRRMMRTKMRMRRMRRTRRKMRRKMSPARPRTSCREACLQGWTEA

[3] = molecular target: T1, Avi/his-CalR-Ins5 (CALRW28.004); assay: SPR, forced degradation: Physiological
[4] = molecular target: T3, CD3EG-HSA-6xHis (CD3W220.002) (human, UniProt P07766 22-118; P09693 23-103); assay: SPR, forced degradation: Physiological
T3 construct: also called human CD3; not shown: human serum albumin (HSA); 6xHis tag
T3 sequence (P07766 other isoform, or with tags, fused parts or gaps): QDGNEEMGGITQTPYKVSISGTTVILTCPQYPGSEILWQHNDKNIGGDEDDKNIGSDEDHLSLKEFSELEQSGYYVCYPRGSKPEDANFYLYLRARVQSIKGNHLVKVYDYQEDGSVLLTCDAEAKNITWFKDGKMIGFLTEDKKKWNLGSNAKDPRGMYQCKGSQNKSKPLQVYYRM

[5] = molecular target: T4, wild-type calreticulin (CALRwt) expressed with MPL in engineered cancer cells (UniProt P27797 18-417, limits assumed); assay: flow cytometry on OCI-M2 MPL CALRwt cells, 1 h at 37 C, AF647 secondary antibody, Geometric Mean
T4 construct: whole, on cells; also called OCI-M2 MPL CALRwt
T4 sequence (looked up): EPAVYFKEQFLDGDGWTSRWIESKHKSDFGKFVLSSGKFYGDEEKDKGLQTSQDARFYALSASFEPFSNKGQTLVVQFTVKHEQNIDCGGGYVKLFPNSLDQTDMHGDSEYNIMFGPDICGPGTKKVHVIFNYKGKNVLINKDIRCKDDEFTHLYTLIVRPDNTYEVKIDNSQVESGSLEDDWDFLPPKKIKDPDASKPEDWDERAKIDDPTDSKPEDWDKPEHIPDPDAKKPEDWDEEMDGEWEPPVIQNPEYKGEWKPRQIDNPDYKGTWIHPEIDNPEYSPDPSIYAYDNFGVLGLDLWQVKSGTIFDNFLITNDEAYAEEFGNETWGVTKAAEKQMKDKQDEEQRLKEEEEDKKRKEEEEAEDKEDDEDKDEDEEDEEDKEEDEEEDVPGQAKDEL

[6] = molecular target: T5, CALRins5 (mutant calreticulin, 5 base pair insertion, Type 2) expressed with MPL on engineered cancer cells (UniProt P27797 18-417); assay: flow cytometry on ELF-153 MPL CALRins5 cells, 1 h at 37 C, AF647 secondary antibody, Geometric Mean
T5 construct: whole, on cells; On the cell surface in complex with MPL; also called OCI-M2 MPL CALRins5
T5 sequence (looked up): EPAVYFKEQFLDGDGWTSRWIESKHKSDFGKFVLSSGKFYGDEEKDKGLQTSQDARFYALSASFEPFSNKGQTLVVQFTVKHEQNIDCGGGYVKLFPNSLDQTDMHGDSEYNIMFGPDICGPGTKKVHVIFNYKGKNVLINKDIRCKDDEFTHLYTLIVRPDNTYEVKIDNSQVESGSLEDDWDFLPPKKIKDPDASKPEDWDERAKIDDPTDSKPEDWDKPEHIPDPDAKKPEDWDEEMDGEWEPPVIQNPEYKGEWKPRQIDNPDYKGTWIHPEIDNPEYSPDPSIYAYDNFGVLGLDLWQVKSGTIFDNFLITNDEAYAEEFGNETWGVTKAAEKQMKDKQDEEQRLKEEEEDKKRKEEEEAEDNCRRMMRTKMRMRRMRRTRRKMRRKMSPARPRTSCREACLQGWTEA
Protocol: FIGS. 4A-4F depict graphs of CALRmutxCD3 bispecific antibody C3CRB73 binding to cells CALRmut-negative or CALRmut-positive. Flow cytometry was used to evaluate C3CRB73 binding to CALRmut-negative and CALRmut-positive cancer cells in vitro. C3CRB73 and NullxCD3 control were tested on a panel of cell lines, engineered to express MPL and CALRmut, after 1 hour 37° C. incubation, with subsequent incubation with secondary AF647-labeled antibody. Geometric mean fluorescence intensity of AF647 was measured to determine antibody binding. […] Abbreviations: CALR, calreticulin; CALRmut, mutant calreticulin; CD, cluster of differentiation; del, deletion; ins, insertion; MPL, thrombopoietin receptor; spFv, stapled single chain fragment variable; wt, wild type.

[7] = molecular target: T5, CALRins5 (mutant calreticulin, 5 base …); assay: flow cytometry on OCI-M2 MPL CALRins5 cells, 1 h at 37 C, AF647 secondary antibody, Geometric mean
Protocol: (§1) FIGS. 27A-27F depict binding of different CALRmutxCD3 antibodies to CALRmut-negative or CALRmut-positive cells. Flow cytometry was used to evaluate CALRmutxCD3 binding to CALRmut-negative and CALRmut-positive cancer cells in vitro. CALRmutxCD3 antibodies were tested on a panel of cell lines, engineered to express MPL and CALRmut, after 1 hour 37° C. incubation, with subsequent incubation with secondary AF647-labeled antibody. Geometric mean fluorescence intensity of AF647 was measured to determine antibody binding.

[8] = molecular target: T5, CALRins5 (mutant calreticulin, 5 base …); assay: flow cytometry on ELF-153 MPL CALRins5 cells, 1 h at 37 C, AF647 secondary antibody, Geometric mean
Protocol: as §1

[9] = molecular target: T6, CD3 on primary human pan T cells (human, UniProt P07766 23-207); assay: flow cytometry, CD3+ pan T cells of 6 healthy donors; average over pan T cells of 6 healthy donors; 1 hour 37° C. incubation
T6 construct: whole, on cells; also called CD3e; CD3ε
T6 sequence (P07766 23-207): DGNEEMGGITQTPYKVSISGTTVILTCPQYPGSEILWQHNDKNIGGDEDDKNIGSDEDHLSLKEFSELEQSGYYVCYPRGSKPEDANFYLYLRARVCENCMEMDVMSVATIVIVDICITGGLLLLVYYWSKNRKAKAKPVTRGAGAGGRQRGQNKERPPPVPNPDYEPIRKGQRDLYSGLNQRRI
Protocol: Flow cytometry was used to evaluate the CD3 arm binding of C3CRB73 to CD3+ pan T cells from 6 different healthy human donors. C3CRB73 and NullxCD3 spFv were tested after 1 hour 37° C. incubation with pan T cells.

B1: C3CRB73 CALRmut x CD3 bispecific antibody (bispecific antibody, human IgG1, kappa, L234A L235A)
heavy: EVQLLESGGGLVQPGGSLRLSCAVSGIDLSNNAISWVRQAPGKGLEYVGVIGNTGDTYYADSAKGRFTISRDSSKTTLYLQMNSLRAEDTAVYFCVRGPPSYSSSVKNIWGQGTLVTVSSASTKGPSVFPLAPSSKSTSGGTAALGCLVKDYFPEPVTVSWNSGALTSGVHTFPAVLQSSGLYSLSSVVTVPSSSLGTQTYICNVNHKPSNTKVDKKVEPKSCDKTHTCPPCPAPEAAGGPSVFLFPPKPKDTLMISRTPEVTCVVVSVSHEDPEVKFNWYVDGVEVHNAKTKPREEQYNSTYRVVSVLTVLHQDWLNGKEYKCKVSNKALPAPIEKTISKAKGQPREPQVYTLPPSREEMTKNQVSLSCAVKGFYPSDIAVEWESNGQPENNYKTTPPVLDSDGSFFLVSKLTVDKSRWQQGNVFSCSVMHEALHNRFTQKSLSLSPGK
light: DIQMTQSPSSVSASVGDRVTITCQSSQSVYNNNWLSWLQQKPGKAPKRLIYDASKLESGVPSRFSGSGSGTDFTLTISSVQPEDAATYYCAGGFTGNVYTFGGGTKVEIKRTVAAPSVFIFPPSDEQLKSGTASVVCLLNNFYPREAKVQWKVDNALQSGNSQESVTEQDSKDSTYSLSSTLTLSKADYEKHKVYACEVTHQGLSSPVTKSFNRGEC
scFv: DIQMTQSPSSLSASVGDRVTITCRARQSIGTAIHWYQQKPGCAPKLLIKYASESISGVPSRFSGSGSGTDFTLTISSLQPEDFATYYCQQSGSWPYTFGQGTKLEIKGGGSGGSGGCPPCGGSGGEVQLVESGGGLVKPGGSLRLSCAASGFTFSRYNMNWVRQAPGKGLEWVSSISTSSNYIYYADSVKGRFTFSRDNAKNSLDLQMSGLRAEDTAIYYCTRGWGPFDYWGCGTLVTVSSEPKSSDKTHTCPPCPAPEAAGGPSVFLFPPKPKDTLMISRTPEVTCVVVSVSHEDPEVKFNWYVDGVEVHNAKTKPREEQYNSTYRVVSVLTVLHQDWLNGKEYKCKVSNKALPAPIEKTISKAKGQPREPQVYTLPPSREEMTKNQVSLWCLVKGFYPSDIAVEWESNGQPENNYKTTPPVLDSDGSFFLYSKLTVDKSRWQQGNVFSCSVMHEALHNHYTQKSLSLSPGK
notes: IgG1-AAS; also called JNJ-88549968; CALRB421 Fab x CD3 spFv
% Active [1]: 98%
Kd [1]: 0.0342 nM
% Active [2]: 98%
Kd [2]: 0.0171 nM
% Active [3]: 99%
Kd [3]: 0.0622 nM
% Active [4]: 96%
Kd [4]: 0.301 nM
binding result [5]: no binding (tested: 100 nM)
EC50 (read off the curve) [6]: ~4 nM
EC50 (read off the curve) [7]: ~5 nM
EC50 (read off the curve) [8]: ~5 nM
EC50 [9]: 23.8 nM

— patent US20260125457A1 (Janssen / Centocor, published 2026)
